The source of these data is publication PMC3386944.

This assay concerns the target HER3 receptor (human (endogenous in AU565)) (UniProt P21860).
Chain of UniProt P21860 (P21860 20-1342): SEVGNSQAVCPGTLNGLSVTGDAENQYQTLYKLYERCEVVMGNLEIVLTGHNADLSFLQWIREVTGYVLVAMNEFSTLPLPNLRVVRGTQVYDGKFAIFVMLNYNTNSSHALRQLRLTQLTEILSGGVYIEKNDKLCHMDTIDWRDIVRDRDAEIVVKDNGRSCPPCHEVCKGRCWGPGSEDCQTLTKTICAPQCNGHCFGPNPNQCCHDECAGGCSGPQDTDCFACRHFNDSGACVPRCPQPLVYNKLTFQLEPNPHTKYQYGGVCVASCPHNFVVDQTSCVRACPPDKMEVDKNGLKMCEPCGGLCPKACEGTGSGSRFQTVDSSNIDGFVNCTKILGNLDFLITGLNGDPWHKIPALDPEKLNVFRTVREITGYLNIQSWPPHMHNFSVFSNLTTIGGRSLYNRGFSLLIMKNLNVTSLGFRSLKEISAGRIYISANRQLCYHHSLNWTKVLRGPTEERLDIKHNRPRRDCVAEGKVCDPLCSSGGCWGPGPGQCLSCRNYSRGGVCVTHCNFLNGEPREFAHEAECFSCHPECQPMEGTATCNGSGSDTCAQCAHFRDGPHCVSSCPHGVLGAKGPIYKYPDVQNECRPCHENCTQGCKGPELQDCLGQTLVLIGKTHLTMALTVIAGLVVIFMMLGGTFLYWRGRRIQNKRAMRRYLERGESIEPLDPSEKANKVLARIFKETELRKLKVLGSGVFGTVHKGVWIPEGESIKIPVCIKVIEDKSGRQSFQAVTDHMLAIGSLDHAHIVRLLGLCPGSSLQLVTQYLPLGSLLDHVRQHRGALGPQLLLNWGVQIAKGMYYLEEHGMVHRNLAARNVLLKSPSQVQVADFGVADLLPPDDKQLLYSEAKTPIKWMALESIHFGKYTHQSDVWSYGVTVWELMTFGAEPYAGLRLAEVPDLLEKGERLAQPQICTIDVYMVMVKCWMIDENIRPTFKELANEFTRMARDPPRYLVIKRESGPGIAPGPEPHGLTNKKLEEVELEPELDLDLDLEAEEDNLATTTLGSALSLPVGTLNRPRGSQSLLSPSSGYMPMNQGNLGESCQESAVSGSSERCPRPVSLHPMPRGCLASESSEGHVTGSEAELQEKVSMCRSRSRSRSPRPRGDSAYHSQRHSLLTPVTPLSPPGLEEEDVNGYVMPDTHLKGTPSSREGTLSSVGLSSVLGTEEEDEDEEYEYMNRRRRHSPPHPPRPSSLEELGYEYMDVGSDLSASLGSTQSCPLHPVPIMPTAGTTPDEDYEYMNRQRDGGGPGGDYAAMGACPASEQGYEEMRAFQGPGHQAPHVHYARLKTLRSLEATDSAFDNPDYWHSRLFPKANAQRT

Consider “heregulin (HRG, NRG1-β1/HRG1-β1 ECD domain), biotinylated (ligand)”, for which the IC50 of Affibody molecule Z05416 (no letters) for inhibition of growth of MCF-7 cells induced by 40 pM HRG (EGF domain construct), 5 days, CCK-8 turned out to be 19 nM; the IC50 of Affibody molecule Z05416 (no letters) for inhibition of growth of SKBR-3 cells induced by 40 pM HRG (EGF domain construct), 5 days, CCK-8 turned out to be 73 nM; the IC50 of Affibody molecule Z05417 (no letters) for inhibition of growth of MCF-7 cells induced by 40 pM HRG (EGF domain construct), 5 days, CCK-8 was found to be 15 nM; the IC50 of Affibody molecule Z05417 (no letters) for inhibition of growth of SKBR-3 cells induced by 40 pM HRG (EGF domain construct), 5 days, CCK-8 stood at 65 nM.
